Results on 22 molecules are retold here after patent publication US20230050380A1 (CHIOME BIOSCIENCE, published 2023).

Assay [1] has as its target T1, crab-eating macaque CDCP1 with N-terminal c-Myc tag (expression vector GS02), on crab-eating macaque … (crab-eating macaque (Macaca …, UniProt Q9H5V8 30-836 (human entry))).
T1 chain: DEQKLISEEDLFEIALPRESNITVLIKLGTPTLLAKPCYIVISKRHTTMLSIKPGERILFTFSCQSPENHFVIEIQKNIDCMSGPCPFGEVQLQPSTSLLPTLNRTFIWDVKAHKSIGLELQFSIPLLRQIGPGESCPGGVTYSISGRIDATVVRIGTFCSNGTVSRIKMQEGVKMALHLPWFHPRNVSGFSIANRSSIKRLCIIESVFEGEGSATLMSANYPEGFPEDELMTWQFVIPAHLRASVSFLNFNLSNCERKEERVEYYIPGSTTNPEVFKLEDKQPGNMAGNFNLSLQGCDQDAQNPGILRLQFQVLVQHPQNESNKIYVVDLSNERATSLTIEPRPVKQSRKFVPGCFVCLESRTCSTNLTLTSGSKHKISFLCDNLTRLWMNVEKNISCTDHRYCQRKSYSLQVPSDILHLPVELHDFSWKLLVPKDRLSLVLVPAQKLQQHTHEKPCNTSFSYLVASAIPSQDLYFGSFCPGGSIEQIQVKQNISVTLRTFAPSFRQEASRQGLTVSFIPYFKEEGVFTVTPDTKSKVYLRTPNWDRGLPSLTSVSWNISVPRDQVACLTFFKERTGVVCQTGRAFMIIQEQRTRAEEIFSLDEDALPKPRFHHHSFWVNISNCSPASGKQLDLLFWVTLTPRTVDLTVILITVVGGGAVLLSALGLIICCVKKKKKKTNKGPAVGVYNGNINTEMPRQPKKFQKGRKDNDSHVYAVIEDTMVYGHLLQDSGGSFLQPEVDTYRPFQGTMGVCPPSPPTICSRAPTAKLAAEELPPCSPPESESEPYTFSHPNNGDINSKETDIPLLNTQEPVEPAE
Kind of assay: flow cytometry on crab-eating macaque CDCP1-expressing CHO-K1 cells. From the text: The hCDCP1-expressing CHO-K1 cells and the crab-eating macaque CDCP1-expressing CHO-K1 cells were exfoliated and dispersed using 0.25% trypsin/EDTA (Nacalai Tesque, Inc.), and were then reacted with various concentrations of individual mouse-human chimeric antibodies, namely, mh12A041HCori/LCori, mh14A025HCori/LCori, mh14A043HCori/LCori, mh14A055, mh14A063HCori/LCori, and mh14A091. Thereafter, the binding property of the antibodies was observed by flow cytometry (FIG. 9). As a result, these 6 antibodies all reacted with the crab-eating macaque CDCP1, and in particular, the 5 antibodies other than mh14A055 reacted with both the human CDCP1 and the crab-eating macaque CDCP1 at the same levels.

Assay [2] concerns the target T2, full-length hCDCP1 with N-terminal c-Myc tag (expression vector GS01), on Ba/F3-hCDCP1 cells or … (human, UniProt Q9H5V8 30-836).
T2 construct: also called human CDCP1; hCDCP1 forced expression cells
T2 sequence: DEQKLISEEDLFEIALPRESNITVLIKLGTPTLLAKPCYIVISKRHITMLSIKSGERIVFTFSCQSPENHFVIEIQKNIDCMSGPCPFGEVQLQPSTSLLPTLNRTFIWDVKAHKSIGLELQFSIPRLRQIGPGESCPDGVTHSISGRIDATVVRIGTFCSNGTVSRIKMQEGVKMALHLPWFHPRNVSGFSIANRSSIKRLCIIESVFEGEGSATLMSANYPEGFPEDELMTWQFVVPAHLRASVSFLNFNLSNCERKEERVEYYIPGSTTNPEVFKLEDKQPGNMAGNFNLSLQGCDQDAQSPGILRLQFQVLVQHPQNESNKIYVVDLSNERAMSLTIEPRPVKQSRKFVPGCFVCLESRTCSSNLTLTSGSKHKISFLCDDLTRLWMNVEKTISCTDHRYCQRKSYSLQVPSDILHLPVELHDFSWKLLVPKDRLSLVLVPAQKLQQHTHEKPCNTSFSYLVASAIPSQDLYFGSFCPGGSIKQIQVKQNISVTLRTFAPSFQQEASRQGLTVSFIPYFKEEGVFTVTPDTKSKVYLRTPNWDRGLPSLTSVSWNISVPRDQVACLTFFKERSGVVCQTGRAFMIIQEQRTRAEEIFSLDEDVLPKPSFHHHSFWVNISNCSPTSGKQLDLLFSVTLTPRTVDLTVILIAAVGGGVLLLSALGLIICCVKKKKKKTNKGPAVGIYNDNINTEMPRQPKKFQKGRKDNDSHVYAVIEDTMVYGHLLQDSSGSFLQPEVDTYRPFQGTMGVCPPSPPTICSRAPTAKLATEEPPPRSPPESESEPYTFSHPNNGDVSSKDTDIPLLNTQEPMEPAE
Kind of assay: flow cytometry on Ba/F3-hCDCP1 cells.

Numbering of substitutions follows the chain as printed.

B1: mh12A041HCori/LCori (antibody, human IgG1, kappa, V domains shown)
VH: EVQLQESGPGILQPSQTLSLTCSFSGFSLSTSGMGVSWIRQPSGKGLEWLAHIYWDDDKRYNPSLKSRLTISKDTSSNQVFLKITSVDTADTATYYCARSGSYYGSSLDCWGQGTTLTVSS
VL: DVLMTQTPLSLPVSLGDQASISCRSSQSIVHSNGNTYLEWYLQKPGQSPKLLIYKVSNRFSGVPDRFSGSGSGTDFTLKISRVEAEDLGVYYCFQGSHVPWTFGGGTKLEIKR
notes: mouse-human chimeric antibody, human IgG1/kappa constant regions; also called mh12A041HCori/LCori-biotin (biotinylated form)
Regarding B1, the binding result in assay [1] and in assay [2] was “binds” throughout.

B2: h14A063VH2/VL1 (antibody, human IgG1, kappa)
heavy: not shown
light: EIVLTQSPATLSLSPGERATLSCRASESVDSYGNSFMHWYQQKPGQAPRLLIFLASNLESGVPARFSGSGSRTDFTLTISSLEPEDFAVYYCQQNNEDPWTFGGGTKVEIKRTVAAPSVFIFPPSDEQLKSGTASVVCLLNNFYPREAKVQWKVDNALQSGNSQESVTEQDSKDSTYSLSSTLTLSKADYEKHKVYACEVTHQGLSSPVTKSFNRGEC
notes: humanized antibody, human IgG1/kappa constant regions
As for B2, in assay [2], the binding result is given as “binds”.

B3: h14A063VH4/VL1 (antibody, human IgG1, kappa, V domains shown)
VH: EVQLVESGGGLVQPGGSLRLSCAASGFTFSSYTMSWVRQAPEKRLEWVAYISSGGGSTYYPDTVKGRFTISRDNAKNSLYLQMNSLRAEDTAVYYCARYDLGFAYWGQGTLVTVSS
VL: EIVLTQSPATLSLSPGERATLSCRASESVDSYGNSFMHWYQQKPGQAPRLLIFLASNLESGVPARFSGSGSRTDFTLTISSLEPEDFAVYYCQQNNEDPWTFGGGTKVEIKR
notes: humanized antibody, human IgG1/kappa constant regions; also called h14A063VH4/VL1-biotin (biotinylated form)
With B3, in assay [2], the binding result is reported as “binds”.

B4: h14A063VH3/VL2 (antibody, human IgG1, kappa)
heavy: not shown
light: B2 light with R72G
notes: as for B2
With B4, the binding result in assay [2] is recorded as “binds”.

B5: h14A063VH4/VL2 (antibody, human IgG1, kappa, V domains shown)
VH: B3 VH
VL: B3 VL with R72G
notes: humanized antibody, human IgG1/kappa constant regions; also called h14A063VH4/VL2-biotin (biotinylated form)
For the molecule B5, in assay [2], the binding result is listed as “binds”.

B6: h14A063VH2/VL2 (antibody, human IgG1, kappa)
heavy: not shown
light: B2 light with R72G
notes: as for B2
As for B6, the binding result in assay [2] was “binds”.

B7: h14A063VH3/VL1 (antibody, human IgG1, kappa)
heavy: not shown
light: B2 light
notes: as for B2
As to B7, the binding result in assay [2] is recorded as “binds”.

B8: h12A041VH1A/VL (antibody, human IgG1, kappa, V domains shown)
VH: QVTLRESGPALVKPTQTLTLTCTFSGFSLSTFGMGVSWIRQPPGKALEWLAHIYWDDDKRYNPSLKSRLTISKDTSKNQVVLTMTNMDPVDTATYYCARSGSYYGSSLDSWGQGTTVTVSS
VL: DIVMTQSPLSLPVTPGEPASISCRSSQSIVHSSGNTYLEWYLQKPGQSPQLLIYKVSNRFSGVPDRFSGSGSGTDFTLKISRVEAEDVGVYYCFQGSHVPWTFGGGTKVEIKR
notes: humanized antibody, human IgG1/kappa constant regions; also called h12A041VH1A/VL-biotin (biotinylated form)
In the case of B8, the binding result in assay [2] is given as “binds”.

B9: h12A041VH2/VLA (antibody, human IgG1, kappa, V domains shown)
VH: B8 VH with F32S, A46G
VL: B8 VL with H31Y
notes: as for B2
With B9, the binding result in assay [2] is recorded as “binds”.

B10: h12A041VH2/VL (antibody, human IgG1, kappa, V domains shown)
VH: B8 VH with F32S, A46G
VL: B8 VL
notes: as for B2
B10: the binding result in assay [2] is “binds”.

B11: h12A041VH2A/VLA (antibody, human IgG1, kappa, V domains shown)
VH: B8 VH with A46G
VL: B8 VL with H31Y
notes: as for B2
On to B11, for which the binding result in assay [2] is on record as “binds”.

B12: h12A041VH1A/VLA (antibody, human IgG1, kappa, V domains shown)
VH: B8 VH
VL: B8 VL with H31Y
notes: as for B2
Regarding B12, the binding result in assay [2] is on record as “binds”.

B13: h12A041VH2/VLB (antibody, human IgG1, kappa, V domains shown)
VH: B8 VH with F32S, A46G
VL: B8 VL with S28N, S33D
notes: as for B2
Consider B13, for which the binding result in assay [2] is listed as “binds”.

B14: h12A041VH1A/VLB (antibody, human IgG1, kappa, V domains shown)
VH: B8 VH
VL: B8 VL with S28N, S33D
notes: as for B2
Regarding B14, the binding result in assay [2] is “binds”.

B15: h12A041VH2A/VLB (antibody, human IgG1, kappa, V domains shown)
VH: B8 VH with A46G
VL: B8 VL with S28N, S33D
notes: as for B2
Consider B15, for which the binding result in assay [2] is reported as “binds”.

B16: h12A041VH2A/VL (antibody, human IgG1, kappa, V domains shown)
VH: B8 VH with A46G
VL: B8 VL
notes: as for B2
In the case of B16, the binding result in assay [2] is given as “binds”.

B17: h14A043VH1/VL1 (antibody, human IgG1, kappa)
heavy: not shown
light: EIVLTQSPATLSLSPGERATLSCSASSSVSYLYWYQQKPGQAPRPWIYLTSNLASGVPARFSGSGSGTDFTLTISSLEPEDFAVYYCQQWSSNPFTFGGGTKVEIKRTVAAPSVFIFPPSDEQLKSGTASVVCLLNNFYPREAKVQWKVDNALQSGNSQESVTEQDSKDSTYSLSSTLTLSKADYEKHKVYACEVTHQGLSSPVTKSFNRGEC
notes: humanized antibody, human IgG1/kappa constant regions; also called h14A043VH1/VL1-biotin (biotinylated form)
B17: the binding result in assay [2] is reported as “binds”.

B18: h14A043VH2/VL1 (antibody, human IgG1, kappa)
heavy: not shown
light: B17 light
notes: humanized antibody, human IgG1/kappa constant regions; also called h14A043VH2/VL1-biotin (biotinylated form)
On to B18, for which the binding result in assay [2] was “binds”.

B19: h14A043VH1/VL3 (antibody, human IgG1, kappa)
heavy: not shown
light: B17 light with T5I
notes: humanized antibody, human IgG1/kappa constant regions; also called h14A043VH1/VL3-biotin (biotinylated form)
B19: the binding result in assay [2] is “binds”.

B20: h14A043VH2/VL2 (antibody, human IgG1, kappa, V domains shown)
VH: QVQLVQSGAEVKKPGSSVKVSCKASGFNIKDYYMNWVRQAPGQGLEWIGWIDPENANTIYDPKFQGRATITADESTSTAYMELSSLRSEDTAVYYCYGSSYRFTYWGQGTLVTVSS
VL: EIVLTQSPATLSLSPGERATLSCSASSSVSYLYWYQQKPGQAPRPWIYLTSNLASGVPARFSGSGSGTDYTLTISSLEPEDFAVYYCQQWSSNPFTFGGGTKVEIKR
notes: as for B2
For B20, the binding result in assay [2] is “binds”.

B21: h14A043VH2/VL3 (antibody, human IgG1, kappa)
heavy: not shown
light: B17 light with T5I
notes: as for B2
Regarding B21, in assay [2], the binding result is listed as “binds”.

B22: h14A043VH1/VL2 (antibody, human IgG1, kappa, V domains shown)
VH: B20 VH with A68V
VL: B20 VL
notes: humanized antibody, human IgG1/kappa constant regions; also called h14A043VH1/VL2-biotin (biotinylated form)
Take B22: the binding result in assay [2] is “binds”.
